# Laboratory results as given in patent US20260108606A1, “TREATMENT OF AUTOIMMUNE DISEASES HAVING A PATHOGENIC T CELL STATE” (THE BRIGHAM AND WOMEN'S HOSPITAL, INC., priority 2023, published 2026).
# B1: IL-23: a cytokine critical for inducing pathogenic Th17 cells (protein, UniProt Q9NPF7 20-189; P29460 23-328, looked up)
# Interleukin-23 subunit alpha: RAVPGGSSPAWTQCQQLSQKLCTLAWSAHPLVGHMDLREEGDEETTNDVPHIQCGDGCDPQGLRDNSQFCLQRIHQGLIFYEKLLGSDIFTGEPSLLPDSPVGQLHASLLGLSQLLQPEGHHWETQQIPSLSPSQPWQRLLLRFKILRSLQAFVAVAARVFAHGAATLSP
# Interleukin-12 subunit beta: IWELKKDVYVVELDWYPDAPGEMVVLTCDTPEEDGITWTLDQSSEVLGSGKTLTIQVKEFGDAGQYTCHKGGEVLSHSLLLLHKKEDGIWSTDILKDQKEPKNKTFLRCEAKNYSGRFTCWWLTTISTDLTFSVKSSRGSSDPQGVTCGAATLSAERVRGDNKEYEYSVECQEDSACPAAEESLPIEVMVDAVHKLKYENYTSSFFIRDIIKPDPPKNLQLKPLKNSRQVEVSWEYPDTWSTPHSYFSLTFCVQVQGKSKREKKDRVFTDKTSATVICRKNASISVRAQDRYYSSSWSEWASVPCS
# Key:
# Assay type in all cases: cell-based, mouse
# CD4+ T cells = assay: Glycolytic rate assay using Seahorse (ECAR); details: WT cells differentiated with IL-1β+IL-6 with or without IL-23 (FIG. 12G)
# Source text: FIG. 12A-12K—TCF1 deficiency obviates the need for IL-23 for Th17 pathogenicity. (FIG. 12A) Schematic view of in vitro differentiation with IL-1b and IL-6 for adoptive transfer experiments. (FIG. 12B-12D) CNS-infiltrating immune cells (FIG. 12B-12C) or immune cells from draining lymph nodes (dLN) (FIG. 12D) were harvested from mice at peak of disease (EAE score 1-5) and analyzed by flow cytometry. (FIG. 12B) Summary data of the frequency of Foxp3+ cells within the 2D2 cell population infiltrating the CNS (WT n=11; KO n=12). (FIG. 12C) Summary data of cytokine production by host CD4+ T cells infiltrating the CNS (WT n=10; KO n=12). (FIG. 12D) Summary data of the frequency of SLAMF6+ and CXCR6+ cells within 2D2+ cells in the dLN of recipients of 2D2 TCF1 WT (n=8) and TCF1cKO (n=10) cells. […] (FIG. 12I-12J) CNS-infiltrating 2D2 cells were harvested and FACS-sorted from mice at peak of disease (EAE score 1-5) and analyzed by confocal microscopy. […]
# Th17 pathogenicity is driven by IL-23 and has been associated with increased glycolytic activity and lipid metabolism, which in turn, supply crucial sterol ligands to boost RORγt transcriptional activity. […] The disclosure further assessed the intra-cellular lipid content of 2D2 TCF1 WT and 2D2 TCF1cKO cells isolated from the CNS of p19^−/− mice.
# TCF1 = assay: Th17 in vitro differentiation, TCF1 and RORγt expression by flow cytometry
# Procedure: (§1) Single-cell suspension were prepared from spleen and lymph nodes, and CD4 T cells isolated using the anti-CD4 microbeads (Miltenyi, catalogue #130-117-043). Subsequently, naïve CD4 T cells (CD62L^+ CD44^− CD25^−) were enriched through fluorescence activated cell sorting (FACS) performed on a BD FACSAria Ilu. Naïve CD4 T cells were activated for 3 days with 1 ug/ml of plate-bound anti-CD3 (BioXcell, BP0001) and anti-CD28 (BioXcell, BE0015), plus the addition of 20 ng/ml of IL-1B (R&D Systems), 25 ng/ml of IL-6 (R&D Systems), 20 ng/ml of IL-23 (R&D Systems), 20 ug/ml of anti-IFNγ (BioXcell, BE0055) and 20 μg/ml of anti-IL4 (BioXcell, BE0045) for pathogenic Th17; 2 ng/ml of TGFβ1, 25 ng/ml of IL-6, 20 μg/ml of anti-IFN and 20 μg/ml of anti-IL4 for non-pathogenic Th17. Cells were then rested in un-coated plates in absence of anti-CD3/anti-CD28 stimulation for 2 days. For some experiments, cells were re-stimulated with 1 ug/ml of anti-CD3/anti-CD28 for 1-2 days.
# (§2) Single-cell suspensions were firstly stained to discriminate live cells with UV Zombie (Biolegend) in PBS, and then in FACS buffer (2% bovine serum albumin in PBS) with antibodies for surface antigens. […] Fully stained samples were read either at a BD LSRFortessa or BD FACSymphony. The data were analyzed with FlowJo software (TreeStar) and GraphPad Prism software (GraphPad).
# Tcf7 locus = Tcf7 locus reporter (Tcf7-GFP) activity in Th17 cells; details: CD4 T cells of Tcf7 locus reporter strain, IL-1β+IL-6 with or without IL-23 for 3 days, then 2 days of rest (FIG. 8C)
# Procedure: as §1, §2
molecule,measurement,setting,value
B1,glycolysis (extracellular acidification rate; ECAR),CD4+ T cells,increased glycolysis
same,TCF1 protein expression,"TCF1; naïve CD4+ T cells differentiated with IL-1β and IL-6 for 2 days, then increasing doses of IL-23, dose-dependent (FIG. 1F)",decreased significantly
same,proportion of TCF1lo RORγt hi cells,"TCF1; pTh17 differentiated for 3 days, then fresh IL-23 added in the culture media (FIG. 8D)",increased proportion
same,Tcf7 locus reporter activity,Tcf7 locus,significantly decreased
